Source: patent publication US10301358B2, “Collagen imaging compositions” (Collagen Medical, LLC, priority 2015, dated 2019)
Entries after “also recorded” stand apart in the source; their conditions may differ. Bridge positions count the residues as written; N and C are the ends. Ends that are not written are not given here.

How the values were obtained:
[1] = Pharmacokinetics (Rat); assay type: in vivo, Sprague Dawley rats; settings: 1.3 umol/kg bolus IV, plasma sampled 2-90 minutes post-injection, ICP-MS
Method: Compound ID No. 1 is formulated at pH 7.5 (TRIS buffer) and administered to Sprague Dawley rats (n=2) at dose of 1.3 umol/kg using a bolus IV injection. Plasma is sampled at 2, 5, 15, 30, and 90 minutes post-injection and analyzed for manganese content using ICP-MS.

[2] = target: T1, collagen (Rattus norvegicus, UniProt P02454+P02466); test: Uptake into fibrotic myocardial tissue, rat model of healed myocardial infarction; assay type: in vivo, Sprague Dawley rats; settings: ~1 umol/kg, 3 weeks following infarction, sacrifice 60 minutes post-injection, tissue manganese
T1 construct: from tissue; host or cells: rat heart (normal and infarcted myocardium), in vivo
Method: Tissue samples from normal myocardium and infarcted myocardium are analyzed for manganese and hydroxyproline (collagen) content.

[3] = Myocardial perfusion imaging, canine LAD occlusion/reperfusion model; assay type: in vivo
Method: To mimic severe ischemia, a canine model is used in which an inflatable variable vascular occluder is placed around the left anterior descending coronary artery (LAD) to allow occlusion and reperfusion. Imaging is performed on a 3T clinical scanner 4 days after implantation of the occluder. The conventional saturation recovery pulse sequence for stress perfusion imaging is compared with a segmented inversion method. The purpose of the segmented inversion method is to leverage the steady-state properties of Compound ID No. 1. This segmented inversion recovery pulse sequence provides greater T1 weighting, higher spatial resolution, and greater myocardial tissue contrast. Additionally, since imaging is delayed, the entire heart can be imaged. After baseline MRI scanning, the balloon is inflated. […]
To assess relative perfusion, labeled microspheres are administered at 3 timepoints in the study. […] At autopsy under ultraviolet light, the hypo-perfused myocardium is differentiated from normal myocardium due to the lack of fluorescence in the hypo-perfused tissue. Based on the fluorescence, a sample of the ischemic territory and a sample of the remote myocardium are taken for ex vivo analysis. These tissue samples are weighed, digested in nitric acid, and analyzed for the elements La, Au, Lu (the three microsphere injections) and manganese (Compound ID No. 1) using ICP-MS. […]

[4] = Uptake into fibrotic liver tissue, bile duct ligated (BDL) rats; assay type: in vivo, Sprague-Dawley rats; settings: ~7.5 μmol/kg, sacrifice after 90 min, BDL vs sham
Method: Bile duct ligated (BDL) rats are selected to assess the uptake of the complexes in fibrotic liver tissue as compared to sham operated animals. In this model, the common bile duct is surgically tied off and the resultant cholestasis results in fibrosis around the bile ducts. Laparotomy is performed in Sprague-Dawley rats with double ligation of the common bile duct with a section between the two ligatures (2-3% isoflurane anesthesia). […] Fibrosis is evident 15 days after ligation and increases with time up to 30 days after ligation, providing defined endpoints for imaging of moderate and severe fibrosis.
Studies are conducted by injecting Compound ID. No. 1 at a dose ˜7.5 μmol/kg. After 90 min, the animals are sacrificed and the 4 liver lobes and abdominal muscle are removed and the manganese concentration quantified by ICP-MS and collagen content quantified using hydroxyproline concentration.

T1 sequence (P02454 152-1207): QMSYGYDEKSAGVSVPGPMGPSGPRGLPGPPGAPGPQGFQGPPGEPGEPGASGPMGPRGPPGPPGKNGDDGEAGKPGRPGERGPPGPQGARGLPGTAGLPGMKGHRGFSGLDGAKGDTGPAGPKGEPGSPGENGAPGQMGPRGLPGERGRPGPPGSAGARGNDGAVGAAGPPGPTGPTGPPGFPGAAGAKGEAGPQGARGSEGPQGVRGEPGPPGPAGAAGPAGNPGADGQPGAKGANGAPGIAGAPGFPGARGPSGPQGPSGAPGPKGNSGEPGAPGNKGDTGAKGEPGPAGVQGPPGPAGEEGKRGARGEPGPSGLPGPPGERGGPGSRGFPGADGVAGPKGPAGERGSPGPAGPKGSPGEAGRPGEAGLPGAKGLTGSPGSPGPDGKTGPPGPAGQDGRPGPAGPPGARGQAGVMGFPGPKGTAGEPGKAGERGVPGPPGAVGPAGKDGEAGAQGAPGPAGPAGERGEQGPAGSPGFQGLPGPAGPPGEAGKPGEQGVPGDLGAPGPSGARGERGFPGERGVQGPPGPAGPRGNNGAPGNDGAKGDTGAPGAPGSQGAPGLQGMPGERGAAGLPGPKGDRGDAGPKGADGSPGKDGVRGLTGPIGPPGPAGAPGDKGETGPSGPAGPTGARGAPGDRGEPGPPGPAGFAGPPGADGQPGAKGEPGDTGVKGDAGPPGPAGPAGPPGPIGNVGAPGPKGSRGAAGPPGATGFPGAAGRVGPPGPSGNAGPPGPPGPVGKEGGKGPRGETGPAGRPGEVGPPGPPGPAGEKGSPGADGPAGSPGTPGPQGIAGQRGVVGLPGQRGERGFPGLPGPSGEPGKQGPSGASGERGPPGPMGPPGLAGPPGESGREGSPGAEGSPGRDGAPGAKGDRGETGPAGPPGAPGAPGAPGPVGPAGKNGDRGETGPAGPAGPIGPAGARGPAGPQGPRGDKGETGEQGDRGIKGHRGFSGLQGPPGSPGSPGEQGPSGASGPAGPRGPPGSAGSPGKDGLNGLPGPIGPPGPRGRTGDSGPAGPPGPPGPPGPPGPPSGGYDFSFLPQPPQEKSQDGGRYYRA
T1 sequence (P02466 86-1125): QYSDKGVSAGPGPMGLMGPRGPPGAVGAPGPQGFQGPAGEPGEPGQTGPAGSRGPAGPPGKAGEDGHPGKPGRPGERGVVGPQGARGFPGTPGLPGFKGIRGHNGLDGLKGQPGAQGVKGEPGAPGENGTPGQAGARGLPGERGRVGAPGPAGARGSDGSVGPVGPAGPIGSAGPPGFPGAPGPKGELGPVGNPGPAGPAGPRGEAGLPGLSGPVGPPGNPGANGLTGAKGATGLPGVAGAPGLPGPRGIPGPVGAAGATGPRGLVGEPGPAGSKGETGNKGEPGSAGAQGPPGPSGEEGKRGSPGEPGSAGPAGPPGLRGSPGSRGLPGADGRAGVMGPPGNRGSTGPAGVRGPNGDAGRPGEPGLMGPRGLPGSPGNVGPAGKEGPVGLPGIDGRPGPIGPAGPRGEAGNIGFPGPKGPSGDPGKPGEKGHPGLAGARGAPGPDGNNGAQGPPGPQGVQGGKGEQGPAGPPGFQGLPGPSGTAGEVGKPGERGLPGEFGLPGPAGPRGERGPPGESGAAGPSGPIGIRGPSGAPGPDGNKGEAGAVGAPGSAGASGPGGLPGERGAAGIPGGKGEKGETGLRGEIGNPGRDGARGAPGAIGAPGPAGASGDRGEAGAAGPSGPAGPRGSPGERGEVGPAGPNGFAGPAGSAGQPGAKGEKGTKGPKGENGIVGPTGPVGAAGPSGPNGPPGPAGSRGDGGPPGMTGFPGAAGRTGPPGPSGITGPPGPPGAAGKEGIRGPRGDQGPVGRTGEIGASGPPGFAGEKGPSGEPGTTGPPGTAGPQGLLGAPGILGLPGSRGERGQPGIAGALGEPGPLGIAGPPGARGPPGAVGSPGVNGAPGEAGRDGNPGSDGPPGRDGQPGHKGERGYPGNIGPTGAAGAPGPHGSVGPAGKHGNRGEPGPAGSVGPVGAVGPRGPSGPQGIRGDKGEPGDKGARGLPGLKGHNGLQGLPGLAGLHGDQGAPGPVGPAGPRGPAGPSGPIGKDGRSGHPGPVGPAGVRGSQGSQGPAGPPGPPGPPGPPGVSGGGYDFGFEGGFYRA

Row | Substance | pharmacokinetic profile (plasma manganese content) [1] | uptake in normal vs. scarred myocardium [2] | MR visualization of myocardial perfusion defect ([3]; 7.5 μmol/kg i.v. bolus one minute after coronary artery occlusion, 3T scanner, listed as 1) | Mn concentration in ischemic vs normal myocardium ex vivo ([3]; 7.5 μmol/kg i.v., sacrifice ca. 120 minutes post injection, ICP-MS) | uptake into fibrotic liver tissue (manganese vs hydroxyproline) [4]
1 | Compound ID No. 1: MnCDTAGA conjugate of cyclic collagen binding peptide SEQ ID No. 1 (G-K-W-H-C-T-T-K-F-P-H-H-Y-C-L-Y-Bip), amidated C-terminus; FIG. 1 (GKWHCTTKFPHHYCLY; MnCDTAGA conjugate; cyclic disulfide; C-terminal amide) | rapid initial blood clearance | greater binding in fibrotic cardiac tissue as compared with normal myocardial tissue | readily visualized; also recorded: positive image contrast in the normally perfused myocardium | preferential deposition in normal vs ischemic cardiac tissue | consistent with uptake of Compound ID No. 1 into fibrotic-rich liver tissue
2 | Compound ID No. 2: MnCDTAGA linked to terminal nitrogen and lysine epsilon amino groups of peptide SEQ ID No. 2, C-terminus —NH2 amide; FIG. 2 (MnCDTAGA-K(MnCDTAGA)WHCTTK(MnCDTAGA)FPHHYCLY; disulfide 4-13 (inferred); not fully specified (C-terminus); printed as K-W-H-C-T-T-K-F-P-H-H-Y-C-L-Y-Bip) |  | greater binding in fibrotic cardiac tissue as compared with normal myocardial tissue |  |  | 
3 | Compound ID No. 4: MnCDTAGA linked to terminal nitrogen or lysine epsilon amino groups of peptide SEQ ID No. 4, C-terminus —NH2 amide; FIG. 4 (KWHCYTKFPHHYCVY; disulfide 4-13 (inferred); not fully specified (C-terminus); printed as K-W-H-C-Y-T-K-F-P-H-H-Y-C-V-Y-Bip; also: MnCDTAGA on N-terminal amine or lysine ε-amino group) |  | greater binding in fibrotic cardiac tissue as compared with normal myocardial tissue |  |  | 
